Laboratory results published in patent US20210244739A1.

Biological target: human protein kinase R (PKR) (human) (UniProt P19525)
Test: cell-based or functional assay

Chain of UniProt P19525 (P19525 2-551 limits assumed): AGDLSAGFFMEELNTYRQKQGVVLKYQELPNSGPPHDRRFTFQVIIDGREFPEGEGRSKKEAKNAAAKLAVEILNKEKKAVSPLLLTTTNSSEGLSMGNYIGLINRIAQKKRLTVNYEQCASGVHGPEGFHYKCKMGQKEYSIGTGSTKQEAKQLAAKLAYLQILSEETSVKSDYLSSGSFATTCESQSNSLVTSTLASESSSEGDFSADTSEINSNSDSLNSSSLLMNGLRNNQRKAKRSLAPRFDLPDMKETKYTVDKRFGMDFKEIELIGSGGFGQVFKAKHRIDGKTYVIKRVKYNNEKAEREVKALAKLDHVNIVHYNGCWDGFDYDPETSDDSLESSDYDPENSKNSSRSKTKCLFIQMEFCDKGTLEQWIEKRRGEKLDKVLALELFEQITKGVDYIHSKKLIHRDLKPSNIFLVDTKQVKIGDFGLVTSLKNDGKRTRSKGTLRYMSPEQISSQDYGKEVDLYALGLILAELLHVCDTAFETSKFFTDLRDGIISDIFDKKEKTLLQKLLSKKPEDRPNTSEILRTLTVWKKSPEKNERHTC

| Substance | virus titre increase between 5 hpi and 48 hpi in HeLa cells |
| --- | --- |
| sheeppox virus 011 (K3 ortholog) | > 10 fold |
| taterapox virus 037 (K3 ortholog) | > 10 fold |
